Experimental data taken from US20240269676A1.

Assays:
[1] = biological target: gp100 antigen presented on the surface of B16F10 (gp100+) mouse melanoma cells treated with 1 µM hgp100 peptide (human) (UniProt P40967); test: microfluidic shear detachment of primary mouse T cells from hgp100-pulsed B16F10 monolayer
[2] = biological target: gp100 antigen presented on the surface of B16F10 (gp100+) mouse melanoma cells treated with 1 µM hgp100 peptide (human) (UniProt P40967); test: cell-based or functional assay

- percent of T cells remaining bound at 1.9 Pa [1]: 19.4%
- IFN-γ secretion (ELISA of overnight T cell-B16F10 co-culture media) [2]: 2120 pg/mL
Sequence: T cell receptor of TCR-transgenic Thy1.1+ pmel-1 (Pmel) mouse T cells
